From patent publication US20190106487A1 (Sanofi, published 2019)
Where a chain is given by its changes, count along the chain named. One block for each binder: values may come before it.

Key:
[1] = molecular target: T1, rhIL-1RAcP/Fc Chimera (human, UniProt Q9NPH3 21-359); assay: ELISA, recombinant purified mAb
T1 construct: also called P013_03; P013-03
T1 sequence (looked up): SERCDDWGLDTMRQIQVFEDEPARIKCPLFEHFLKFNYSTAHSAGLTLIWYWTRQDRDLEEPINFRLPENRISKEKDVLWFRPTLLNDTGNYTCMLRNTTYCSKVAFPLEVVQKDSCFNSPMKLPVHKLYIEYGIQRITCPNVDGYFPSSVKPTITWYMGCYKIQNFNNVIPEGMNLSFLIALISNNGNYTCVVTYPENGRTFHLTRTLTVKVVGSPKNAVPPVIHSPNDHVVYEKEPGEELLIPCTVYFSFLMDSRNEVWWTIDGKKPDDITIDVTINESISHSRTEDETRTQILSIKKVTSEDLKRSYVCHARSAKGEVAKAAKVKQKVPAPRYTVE

[2] = molecular target: T1, rhIL-1RAcP/Fc Chimera; assay: ELISA, primary supernatant, coated hu-IL-1RAcP-Fc
Outline: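 Plates coated with 0.5 μg/mL Fc-tagged human IL-1RAcP; rabbit B-cell supernatant antibodies detected by peroxidase anti-rabbit IgG Fab2 and TMB, absorbance 450/620 nm. Parallel IL12Rβ1-Fc coating served as counterscreen to exclude tag binders.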

[3] = molecular target: T2, mIL1RAcP-Fc (murine, UniProt Q61730 21-359); assay: ELISA, primary supernatant, coated mu-IL-1RAcP-Fc
T2 construct: also called P013_04; P013-04
T2 sequence (looked up): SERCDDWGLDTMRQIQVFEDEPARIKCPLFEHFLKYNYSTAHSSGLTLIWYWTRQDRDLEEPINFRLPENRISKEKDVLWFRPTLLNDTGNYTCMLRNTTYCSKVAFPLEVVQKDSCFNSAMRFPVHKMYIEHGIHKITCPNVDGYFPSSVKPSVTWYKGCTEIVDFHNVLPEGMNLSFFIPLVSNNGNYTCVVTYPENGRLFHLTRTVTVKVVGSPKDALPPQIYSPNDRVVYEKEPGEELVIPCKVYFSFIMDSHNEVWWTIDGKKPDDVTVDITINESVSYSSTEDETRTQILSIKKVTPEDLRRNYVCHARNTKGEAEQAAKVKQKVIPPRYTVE

[4] = molecular target: T3, human IL-1RAcP on 293T/17-FR cells (human, UniProt Q9NPH3 21-570); assay: cell-based or functional assay
T3 sequence (looked up): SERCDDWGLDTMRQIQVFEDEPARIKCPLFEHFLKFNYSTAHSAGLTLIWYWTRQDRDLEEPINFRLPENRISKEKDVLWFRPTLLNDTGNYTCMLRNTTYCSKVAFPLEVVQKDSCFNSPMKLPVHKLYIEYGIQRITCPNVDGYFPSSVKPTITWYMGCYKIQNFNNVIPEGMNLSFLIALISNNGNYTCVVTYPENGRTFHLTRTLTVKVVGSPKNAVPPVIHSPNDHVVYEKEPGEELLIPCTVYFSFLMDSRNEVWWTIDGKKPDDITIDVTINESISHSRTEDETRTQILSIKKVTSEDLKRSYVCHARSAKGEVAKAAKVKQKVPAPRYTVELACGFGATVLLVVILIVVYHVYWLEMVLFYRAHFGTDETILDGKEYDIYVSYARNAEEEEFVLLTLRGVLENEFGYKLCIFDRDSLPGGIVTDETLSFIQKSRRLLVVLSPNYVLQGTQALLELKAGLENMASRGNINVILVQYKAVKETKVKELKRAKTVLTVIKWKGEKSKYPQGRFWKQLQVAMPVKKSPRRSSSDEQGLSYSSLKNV

EC50 [1]: 0.027 µg/mL
hu-IL1RaP ELISA (OD) [2]: 3.5 OD
mu-IL1RaP ELISA (OD) [3]: 0 OD
functional reporter gene assay (% inhibition), 0.04 µg/mL mAb [4]: 14%
functional reporter gene assay (% inhibition), 0.2 µg/mL mAb [4]: 85%
functional reporter gene assay (% inhibition), 1 µg/mL mAb [4]: 99%
functional reporter gene assay (% inhibition), 5 µg/mL mAb [4]: 100%
primary supernatant functional assay (% inh.), NF-kB luciferase reporter [4]: 96%
B1: P013.S.01.B.A06 (antibody, V domains shown)
VH: QSLEESGGRLVTPGTPLTLSCKVSGFSLSSYDMSWVRQTPGKGLEWIGTIYIGGTTAYASWPKGRFTISKTSTTVDLKITSPTKEDTATYFCARLQGANYYNSLALWGQGTLVTVSS
VL: DVVMTQTPASVSEPVGGTVTIKCQASQSIYSFLSWYQQKPGQPPKLLIYAASDLESGVPSRFSGSGYGTEFTLTISDLESADAATYYCQCNYIIDYGAFGGGTEVVVK
notes: rabbit monoclonal antibody; also called P013.A.00133.B12

EC50 [1]: 0.144 µg/mL
hu-IL1RaP ELISA (OD) [2]: 3.2 OD
mu-IL1RaP ELISA (OD) [3]: 0 OD
functional reporter gene assay (% inhibition), 0.04 µg/mL mAb [4]: 38%
functional reporter gene assay (% inhibition), 0.2 µg/mL mAb [4]: 51%
functional reporter gene assay (% inhibition), 1 µg/mL mAb [4]: 82%
functional reporter gene assay (% inhibition), 5 µg/mL mAb [4]: 92%
primary supernatant functional assay (% inh.), NF-kB luciferase reporter [4]: 89%
B2: P013.S.01.B.G03 (antibody, V domains shown)
VH: QEQLVESGGGLVQPEGSLTLTCKASGFDFSSNYYMCWVRQAPGKGLELIACIYTNSGNTWSASWAKGRFTISKTSSTTVTLQMTSLTAADTATYFCARDLNYPDTSNLWGQGTLVTVSS
VL: DIVMTQTPASVEAAVGGTVTIKCQASQSIGYYLAWYQQKPGQPPKLLISRASTLASGVPSRFKGSGSGTQFTLTISDLESADVATYYCQSYYNSDSDAFGGGTEVVVK
notes: rabbit monoclonal antibody; also called P013.A.00030.C03

EC50 [1]: 0.287 µg/mL
hu-IL1RaP ELISA (OD) [2]: 3.8 OD
mu-IL1RaP ELISA (OD) [3]: -0.1 OD
functional reporter gene assay (% inhibition), 0.04 µg/mL mAb [4]: 17%
functional reporter gene assay (% inhibition), 0.2 µg/mL mAb [4]: 31%
functional reporter gene assay (% inhibition), 1 µg/mL mAb [4]: 78%
functional reporter gene assay (% inhibition), 5 µg/mL mAb [4]: 89%
primary supernatant functional assay (% inh.), NF-kB luciferase reporter [4]: 94%
B3: P013.S.02.B.B03 (antibody, V domains shown)
VH: QEQLEESGGDLVKPEGSLTLTCTASGFSFSSNYWICWVRQAPGKGLELIACIYTSTGNTWYASWAKGRFTISKTSSTTVTLQMTSLTVADTATYFCARDLLVVTSFNLWGQGTLVTVSS
VL: ALVMTQTPSPVSAAVGGTVTINCQASEDIYSNLAWFQQKPGQPPKLLIYGASTLASGVPSRFSGSGSGTEFTLTISGVQSDDAATYYCLGVCTDISTDDLYNAFGGGTELVVK
notes: rabbit monoclonal antibody; also called P013.A.00045.F11

EC50 [1]: 0.497 µg/mL
hu-IL1RaP ELISA (OD) [2]: 3.5 OD
mu-IL1RaP ELISA (OD) [3]: 0 OD
functional reporter gene assay (% inhibition), 0.04 µg/mL mAb [4]: 21%
functional reporter gene assay (% inhibition), 0.2 µg/mL mAb [4]: 6%
functional reporter gene assay (% inhibition), 1 µg/mL mAb [4]: 81%
functional reporter gene assay (% inhibition), 5 µg/mL mAb [4]: 96%
primary supernatant functional assay (% inh.), NF-kB luciferase reporter [4]: 93%
B4: P013.S.02.B.F04 (antibody, V domains shown)
VH: B3 VH with E5V, L48W, G57D, N58T, W60Y, A62P, S63N, V88A
VL: B3 VL with T97A, A103T, L110V
notes: rabbit monoclonal antibody; also called P013.A.00109.B02

EC50 [1]: 0.362 µg/mL
hu-IL1RaP ELISA (OD) [2]: 3.6 OD
mu-IL1RaP ELISA (OD) [3]: 0 OD
functional reporter gene assay (% inhibition), 0.04 µg/mL mAb [4]: -16%
functional reporter gene assay (% inhibition), 0.2 µg/mL mAb [4]: 42%
functional reporter gene assay (% inhibition), 1 µg/mL mAb [4]: 47%
functional reporter gene assay (% inhibition), 5 µg/mL mAb [4]: 48%
primary supernatant functional assay (% inh.), NF-kB luciferase reporter [4]: 80%
B5: P013.S.02.B.A05 (antibody, V domains shown)
VH: QEQLVESGGGLVQPEGSLTLTCQASGFTFSSYYVICWVRQAPGKGLEWIACIGTGDGLTYYASWAKGRFTISKTSSTTVTLQMTSLTAADTATYFCARDRYATVSGILNLWGPGTLVTVSS
VL: DVVMTQTPASVEAAVGGTVTIKCQASQNIYSNCAWYQQKLGQRPKLLIYYVSTLESGVPSRFEGSGYGTEFTLTISDLQSADAATYYCQYTYDSSSSTSWAFGGGTEVVVK
notes: rabbit monoclonal antibody; also called P013.A.00031.D11

EC50 [1]: 0.485 µg/mL
hu-IL1RaP ELISA (OD) [2]: 3.3 OD
mu-IL1RaP ELISA (OD) [3]: 0.4 OD
functional reporter gene assay (% inhibition), 0.04 µg/mL mAb [4]: 20%
functional reporter gene assay (% inhibition), 0.2 µg/mL mAb [4]: 47%
functional reporter gene assay (% inhibition), 1 µg/mL mAb [4]: 88%
functional reporter gene assay (% inhibition), 5 µg/mL mAb [4]: 90%
primary supernatant functional assay (% inh.), NF-kB luciferase reporter [4]: 95%
B6: P013.S.01.B.H05 (antibody, V domains shown)
VH: LEQSGGGAEGGLVKPGGSLELCCKASGFSLSNSYWICWVRQAPGKGLEWIGCIYVGSSGSTYYASWVNGRFTLSRDIDQSTGCLQLNSLTAADTAIYYCARDGATSTSGHLFELWGQGTLVTVSS
VL: ALVMTQTPSPVSAAVGGTVTINCQASEDIYSNLAWFQQKPGQPPKLLIYRASTLASGVPSRFSGSGSGTEFTLTISGVQSDDAATYYCLGIYTYISADGSLYNAFGGGTEVVVK
notes: rabbit monoclonal antibody; also called P013.A.00109.F08

EC50 [1]: 0.064 µg/mL
hu-IL1RaP ELISA (OD) [2]: 3.6 OD
mu-IL1RaP ELISA (OD) [3]: 0 OD
functional reporter gene assay (% inhibition), 0.04 µg/mL mAb [4]: 18%
functional reporter gene assay (% inhibition), 0.2 µg/mL mAb [4]: 47%
functional reporter gene assay (% inhibition), 1 µg/mL mAb [4]: 88%
functional reporter gene assay (% inhibition), 5 µg/mL mAb [4]: 96%
primary supernatant functional assay (% inh.), NF-kB luciferase reporter [4]: 91%
B7: P013.S.01.B.H06 (antibody, V domains shown)
VH: LEQSGGGGEGGLVKPGGSLELCCKASGFSLSSSYWICWVRQAPGKGLEWIGCIYVGSSGSTYYASWVSGRFTLSRDIDQSTGCLQLNSLTAADTAMYYCARDIYGSTNGYDLWGQGTLVTVSS
VL: B6 VL with R50Q, T53K, V78L, A83V, I91V, Y92G, A97G, Y102D
notes: rabbit monoclonal antibody; also called P013.A.00086.B03

EC50 [1]: 0.359 µg/mL
hu-IL1RaP ELISA (OD) [2]: 3.4 OD
mu-IL1RaP ELISA (OD) [3]: -0.1 OD
functional reporter gene assay (% inhibition), 0.04 µg/mL mAb [4]: 26%
functional reporter gene assay (% inhibition), 0.2 µg/mL mAb [4]: 37%
functional reporter gene assay (% inhibition), 1 µg/mL mAb [4]: 33%
functional reporter gene assay (% inhibition), 5 µg/mL mAb [4]: 87%
primary supernatant functional assay (% inh.), NF-kB luciferase reporter [4]: 95%
B8: P013.S.02.B.B02 (antibody, V domains shown)
VH: LAQSGGGAEGGLVKPGGSLELCCEASGFSLSSSYWICWVRQAPGKGLEWIGCIYTGSSGNTYYASWVNGRFTLSRDIDRSTGCLQLNSLTAADTAMYYCARDANSHYMMNLWGQGTLVTVSS
VL: ALVMTQTPSPVSAAVGGTVTINCQASEDIYSNLAWFQQKPGQPPKLLIYDASTLASGVPSRFSGSGSGTEFTLTISGLQSDDAATYYCLGVYTYISADGTLVYNAFGGGTEVVVR
notes: rabbit monoclonal antibody; also called P013.A.00045.H10

EC50 [1]: 0.255 µg/mL
hu-IL1RaP ELISA (OD) [2]: 3.4 OD
mu-IL1RaP ELISA (OD) [3]: 0 OD
functional reporter gene assay (% inhibition), 0.04 µg/mL mAb [4]: 15%
functional reporter gene assay (% inhibition), 0.2 µg/mL mAb [4]: 51%
functional reporter gene assay (% inhibition), 1 µg/mL mAb [4]: 84%
functional reporter gene assay (% inhibition), 5 µg/mL mAb [4]: 95%
primary supernatant functional assay (% inh.), NF-kB luciferase reporter [4]: 99%
B9: P013.S.01.B.G04 (antibody, V domains shown)
VH: QSVEESGGRLVTPGTPLTLTCTVSGFSLSVYAMGWFRQAPGKGLEWIGDIYIASDGTWYANWAKGRFTISKTSTTVDLKITSPTTEDTATYFCAREIDAGYVGYGFNLWGQGTLVTVSS
VL: AQALTQTPSPVSAAVGGTVTINCQSSQSVYSDYLGWYQQKPGQPPKLLIYWASKLETGVPSRFKGSGSGTQFTLTISGVQSDDAATYYCQATYYGSGWYRAFGGGTEVVVK
notes: rabbit monoclonal antibody; also called P013.A.00013.G06

EC50 [1]: 0.07 µg/mL
hu-IL1RaP ELISA (OD) [2]: 3.4 OD
mu-IL1RaP ELISA (OD) [3]: -0.1 OD
functional reporter gene assay (% inhibition), 0.04 µg/mL mAb [4]: 15%
functional reporter gene assay (% inhibition), 0.2 µg/mL mAb [4]: 70%
functional reporter gene assay (% inhibition), 1 µg/mL mAb [4]: 92%
functional reporter gene assay (% inhibition), 5 µg/mL mAb [4]: 93%
primary supernatant functional assay (% inh.), NF-kB luciferase reporter [4]: 72%
B10: P013.S.01.B.C06 (antibody, V domains shown)
VH: B9 VH with T15G, P16S, V30I, I52A, A53G, D55G, G56S, N61S
VL: B9 VL with P10S, G35A, W51Q, E56A, V108L
notes: rabbit monoclonal antibody; also called P013.A.00014.D06
